From patent publication US7799901B2, “Modulators of the function of FAS receptors and other proteins” (Yeda Research and Development Co. Ltd., priority 1995, dated 2010)

T1: p75 TNF receptor (Homo sapiens, UniProt P20333)
T1 construct: human p75 TNF receptor (p75-IC, residues 287-461); expressed in transfected cells; host or cells: SFY526 yeast
T1 sequence (P20333 287-461): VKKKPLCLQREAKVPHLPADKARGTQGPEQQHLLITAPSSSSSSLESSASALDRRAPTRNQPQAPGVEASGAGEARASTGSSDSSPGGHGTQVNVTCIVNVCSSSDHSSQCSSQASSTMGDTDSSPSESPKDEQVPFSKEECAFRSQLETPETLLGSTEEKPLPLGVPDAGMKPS

B1: MORT-1: Mediator of Receptor-induced Toxicity; protein binding the intracellular domain of FAS-R, SEQ ID NO:2 (protein)
chain: VNQAPECRFGGGILGPLGKRRDLARASEPRTEGARRAGPQPRPLADPAMDPFLVLLHSVSSSLSSSELTELKFLCLGRVVKRKLERVQSGLDLFSMLLEQNDLEPGHTELLRELLASLRRHDLLRRVDDFEAGAAAGAAPGEEDLCAAFNVICDNVGKDWRRLARQLKVSDTKIDSIEDRYPRNLTERVRESLRIWKNTEKENATVAHLVGALRSCQMNLVADLVQEVQQARDLQNRSGAMSPMSWNSDASTSEAS
B2: MACHα1 (C360S): MACHα1 mutant in which the catalytic cysteine Cys360 is replaced by Ser (protein)
chain: MDFSRNLYDIGEQLDSEDLASLKFLSLDYIPQRKQEPIKDALMLFQRLQEKRMLEESNLSFLKELLFRINRLDLLITYLNTRKEEMERELQTPGRAQISAYRVMLYQISEEVSRSELRSFKFLLQEEISKCKLDDDMNLLDIFIEMEKRVILGEGKLDILKRVCAQINKSLLKIINDYEEFSKERSSSLEGSPDEFSNGEELCGVMTISDSPREQDSESQTLDKVYQMKSKPRGYCLIINNHNFAKAREKVPKLHSIRDRNGTHLDAGALTTTFEELHFEIKPHDDCTVEQIYEILKIYQLMDHSNMDCFICCILSHGDKGIIYGTDGQEAPIYELTSQFTGLKCPSLAGKPKVFFIQASQGDNYQKGIPVETDSEEQPYLEMDLSSPQTRYIPDEADFLLGMATVNNCVSYRNPAEGTWYIQSLCQSLRERCPRGDDILTILTEVNYEVSNKDDKKNMGKQMPQPTFTLRKKLVFPSD

What was measured:
p75 TNF receptor = target: T1, p75 TNF receptor; experiment: Two-hybrid test of MORT-1 binding (FIG. 1), p75 TNF receptor; details: p75-IC residues 287-461, FIG. 1
Source text: To isolate proteins interacting with the intracellular domain of the FAS-R, the yeast two-hybrid system was used (Fields and Song, 1989). […] In this system, the genes for the candidate interacting proteins are cloned into separate expression vectors. In one expression vector, the sequence of the one candidate protein is cloned in phase with the sequence of the GAL4 DNA-binding domain to generate a hybrid protein with the GAL4 DNA-binding-domain, and in the other vector, the sequence of the second candidate protein is cloned in phase with the sequence of the GAL4 activation domain to generate a hybrid protein with the GAL4-activation domain. The two hybrid vectors are then co-transformed into a yeast host strain having a lacZ or HIS3 reporter gene under the control of upstream GAL4 binding sites. Only those transformed host cells (cotransformants) in which the two hybrid proteins are expressed and are capable of interacting with each other, will be capable of expressing the reporter gene. In the case of the lacZ reporter gene, host cells expressing this gene will become blue in color when X-gal is added to the cultures. […]
In FIG. 1, there is depicted the interaction of the proteins encoded by the Gal4 DNA binding domain and activation-domain constructs (pGBT9 and pGAD-GH) within transfected SFY526 yeasts as assessed by β-galactosidase expression filter assay. […]

MACHα1 (C360S) = target: T2, MACHα1 (C360S) (Homo sapiens, UniProt Q14790, C360S); experiment: Two-hybrid β-galactosidase filter assay (FIG. 5), binding to MACHα1 (C360S); details: two hybrid test
T2 construct: expressed in transfected cells; host or cells: SFY526 yeast
Protocol: In FIG. 5, there is shown the results of the interaction of MORT-1 and MACH within transfected yeast cells. Briefly, MORT-1 and MACHβ1 and their deletion constructs, as well as MACHα1, a MACHα1 mutant in which the catalytic cysteine Cys360 is replaced by Ser (MACHα1 (C360S)) and the intracellular domain of human FAS-R (Fas-IC), were expressed within transfected SFY526 yeast in Gal4 DNA binding domain and activation domain constructs (pGBT9 and pGAD-GH). Their interaction was assessed by a β-galactosidase expression filter assay as described in Boldin et al (1995b). The results are presented in terms of the time required for the development of strong color. […] None of the inserts examined interacted with a number of tested negative controls, including the intracellular domains of human p55 TNF receptor, p75 TNF receptor and CD40, and lamin, cyclin D and ‘empty’ Gal4 vectors. MACHβ1 was cloned by two hybrid screening of a Gal4 AD-tagged human B cell library (Durfee et al, 1993) for proteins that bind to MORT-1, using the HF7c Yeast reporter strain. Except where otherwise indicated, all experimental procedures for the findings presented are as described above (see also Boldin et al, 1995). […] MACHβ1 also self-associated in the transfected yeast. […] Expression of MACHβ1 molecules in mammalian cells yielded a 34 kDa protein that bound to MORT-1 molecules co-expressed with it. […]

| Molecule | binding to p75 TNF receptor in two-hybrid test (p75 TNF receptor) | binding to MACHα1 (C360S) in transfected yeast (MACHα1 (C360S)) |
| --- | --- | --- |
| B1 | not | – |
| B2 | – | bound |
